Target: T1, 人PCSK9抗原多肽 (前蛋白转化酶枯草溶菌素9, PCSK9) (human, UniProt Q8NBP7 31-692, limits assumed)
T1 construct: Expressed in CHO cells; also called PCSK9蛋白; Proprotein convertase subtilisin/kexin type 9
Test: ProteOn (SPR), PCSK9 immobilised on chip, nanobody dilution series as analyte

T1 sequence (Q8NBP7 31-692 limits assumed): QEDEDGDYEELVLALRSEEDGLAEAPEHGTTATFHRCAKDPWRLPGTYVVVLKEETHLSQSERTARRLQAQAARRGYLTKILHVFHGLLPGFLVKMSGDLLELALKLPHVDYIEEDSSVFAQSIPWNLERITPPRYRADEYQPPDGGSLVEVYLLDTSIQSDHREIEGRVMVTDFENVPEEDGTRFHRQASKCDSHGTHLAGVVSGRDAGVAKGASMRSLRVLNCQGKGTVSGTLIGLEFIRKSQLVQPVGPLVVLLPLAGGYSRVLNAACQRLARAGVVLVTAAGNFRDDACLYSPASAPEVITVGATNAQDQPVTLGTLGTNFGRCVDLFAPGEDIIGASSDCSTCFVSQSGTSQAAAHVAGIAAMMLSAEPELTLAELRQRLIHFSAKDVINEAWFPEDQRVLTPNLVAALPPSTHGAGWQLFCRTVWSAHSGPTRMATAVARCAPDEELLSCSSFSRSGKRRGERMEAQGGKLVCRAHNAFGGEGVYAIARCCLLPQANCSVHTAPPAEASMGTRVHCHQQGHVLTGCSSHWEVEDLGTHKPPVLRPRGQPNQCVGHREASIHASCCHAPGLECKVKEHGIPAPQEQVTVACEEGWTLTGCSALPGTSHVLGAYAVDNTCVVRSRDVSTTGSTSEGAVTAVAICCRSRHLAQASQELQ

B1: PCSK9纳米抗体 (VHH)
VHH: ESGGGSVQAGGSLRLSCTVSGYTYSSNCMGWFRQAPGKEHEGVASIYIGGGSTYYADSVKGRFTISQDNAKNTVYLQMNSLKPEDTAMYYCAVGCQGLVDFGYWDQGTQVTVSS
notes: Expressed from pMECS in E. coli HB2151 and purified on a Ni column; also called PCSK9 Nb; PCSK9 nanobody; not shown: tags from the pMECS vector (HA tag detected with anti-HA antibody); purified on a
B1 showed a Kd of 25 nM, a koff of 0.000112 s⁻¹ and a kon of 4490 M⁻¹ s⁻¹.

Reference: patent publication CN109897110A (SHENZHEN BGI LIFE SCIENCE RES INSTITUTE, dated 2019)
